# In the DeepSol protein solubility set:
# Assay: soluble on expression in E. coli; label from the status in PepcDB or PDB records
row,Sequence,soluble on expression in E. coli
1,MKKTDTLPATLSALIQEYSIAEGIQMAEQQVRENPAKALCRHSLFQLLCVAGDWSRALHQLQLCARMEANYTQEARLYRELVRCEMFRHTVFQGEQRPGFLLPQPVWVESLLAALACHDDTGEVDKHRNTALEAITDTGGQWNGGAFDWASDSDSRLGPVLELVTGGVYIWLPFSQIRSLESPQPTRLTDLLWKPVNITLVNGDTHGAWLFTRYSGSESASDALRLCRETAWQDGPGETTVRALGQKVWLTSHGDISLLDMAHCTFHAQENDGA,not soluble
2,MSLQELPVPKPHQLKWHEAEMGAVFHYDLHVFDGIRYGQGNNRINPIEDYNIFNPTELNTDQWVQAAKAAGCKFAVLTATHETGFGLWQSDVNPYCLKAVKWRDGKGDIVRDFVNSCRKYGLQPGIYIGIRWNSLLGIHNFKAEGEGAFARNRQAWYKRLCEKMVTELCTRYGDLYMIWFDGGADDPRADGPDVEPIVNKYQPNCLFYHNIDRADFRWGGSETGTVEYPCWSTFPVPCSHHKRIESSIDQLELLKHGDKNGRYWVPAMADTPLRGANGRHEWFWEPDDENNIYPLNTLMDKYEKSVGRNATLILGLTPDPTGLIPAGDAQRLKEMGDEINRRFSSPIARISGQKKSLTLKLGKEQSVNYCIIQENIKNGERIRQYQIEAKVNGKWQTVCKGESVGHKRIEKFEPVEATALRLTVSESIALPDIINFSAYSVKEGHHHHHH,soluble
3,MGSDKIHHHHHHMHPNIATLLSANLGESRTRHLLSLVSVPDGLPSDAEGRATRAEIAQALNMVLFAGILDRVPTGRAYTDDVAATGGKVVFDHGALRTVKWRDNGALPEGEAAFTRILRPLGYRLNGNYPLDRISMTGRSYAHADAPEGIAQFFVSEFHPERFSDAFREAVGRVTGNSADPLTPRAQTLLWQLDRDGVLTVADGAELIGLLVPCFERQHGVPRLADYETLLRESAEMAWIATEGNAFNHATDRVDDVFGLSEQQKALGRPMKDKVEVSGSGRVKQTAFRADTVRRQFIGAQGETVERDVPGSFYEFITRDRFADAPAASPRVDLGFDAGNAQGIFKMTAAV,not soluble
4,MTATITNKKSCSGSVEAGKTRLTTEWKPESQVPQYVKNELSKPHPNYILAFLNVVQQLKIQRRTGYLDLGIKECESISDHMYRLSIITMLIKDSRVNRDKCVRIALVHDIAESLVGDITPVDPIGKEEKHRREWETIKYLCNALIKPYNEIAAKEIMDDWLAYENVTSLEARYVKDIDKYEMLVQCFEYEREYKGTKNFDDFFGAVASIKTDEVKGWTSDLVVQRQKYFADLTQSITK,soluble
5,MGSDKIHHHHHHMRPRILLYTGKGGVGKTSIAAATGALLSSKGHKTLIISTDPAHSLGDAFGMEIGHSIKQLADNLYGQEVSVVQSINEHWGELKDYLRSLFLSQGLDPVSADEIATLPGFEEASELLYLRNYYYDEEYDTIIMDSAPTGAALQLLSFPEVMTWYMDKLFPISRKTARVARPLLKPFVDIPLPEDAVFENIDLLYRQLTDIRKILTNNDVTSIRLVTNPDNMSYSETKRAYTYLLLYGYPVDAVIINKILSDETGDFFEKMRGSQKDIITEMENSFVDIKIFKARLLQEEPIGIKKLIELGKLIYGDEDPYKVFYKGTPIKYTKNGDRYILKIKMPFAEKEKLNLFNHGGELTIEIANWKRVFYLPESISDKRPVSAEYSNGYLNVILE,not soluble
6,MGHHHHHHSHMCGKFTLFSEFDDIIEQFNIDQFLPEGEYHPSYNVAPSQNILTIINDGSNNRLGKLRWGLIPPCAKDEKIGYKMINARAETLAEKPSFRKPLGSKRCIIPADSFYEWKRLDPKTKIPMRIKLKSSNLFAFAGLYEKWNTLEGNLLYTCTIITIKPSELMEDIHDRMPVILTDENKKEWLNPKNTDPDYLQSLLLPYDADDMEAYQVSSLVNSPELIESH,soluble
7,MDPIKQEISEYFKDWMELYKKNAIDEMTYKGYEQTLKYLKTYMPNVLISEITASSYQRALNKFAETHAKASTKGFHTRVRASIQPLIEEGRLQKDFTTRAVVKGLEHHHHHH,soluble
8,MIQHLSSDTVVIGGGVVGLTIALTVARRHRSVILLDPEEPGSGASYGNAGTIADYAVLPVGTPDVLRQLPSLMFDRNSPLAIRHMALPSLAPWLARFLRQSLPAPARRNAQAIAALLGSATRSWEDLAVEVEGTALLNRRGCLYAYETPQAARAAETDMTFRRTLGVTVELLSAAEFAAMEPSLPPMAGAAYFPKAIFLSDPGRMVALIAEAARKAGVQIVKARATGLERRVDGVIVSGRALQIHGRRAVIAAGAHSRALALCAGDRVPLDTERGYHVEWDMAQPPLTRPTCPTARGFYLCPMAGRLRVAGTVELGGLTARPSPHRIARLVAGARAIFPHLPEPTRSWMGFRPSMPDSLPVIGPSAAGPEILHAYGHGHIGLTLAPITARIVADLLDAKTPELDIAPYLPTRFLEHHHHHH,not soluble
